First the molecules themselves.
B1: TLf1 (flavoxobin) (enzyme, Protobothrops flavoviridis)
chain: VIGGDECNINEHPFLVALYDAWSGRFLCGGTLINPEWVLTAAHCDSKNFKMKLGAHSQKVLNEDEQIRNPKEKFICPNKKNTEVLDKDIMLIKLDSPVSYSEHIAPLSLPSSPPSVGSVCRIMGWGSITPVEETFPDVPHCANINLLDDVECKPGYPELLPEYRTLCAGVLQGGIDTCGFDSGTPLICNGQFQGIVYIGSHPCGQSRKPGIYTKVFDYNAWIQSIIAGNTAATCLP
notes: flavoxobin, thrombin-like serine protease of Protobothrops flavoviridis; also called svSP01_TLf1; flavoxovin; source: purified from habu crude venom (CM-52 flow-through, Hi-trap benzamidine column)
B2: TLf2, thrombin-like serine protease TLSP2 (natural protein)
chain: IIGGDECNINEHRFLVALYTFRSRRLHCGGILINQEWVLSAARCNRKNIRIQLGMHSTNVINEDVQTRVPKEKFFCLSSKTHTRWNKDIMLIRLNSPVNNSTHIAPVSLPSNPPSLGSVCRVMGWGTISATKETHPDVPHCANINILDYSVCRAAYARLPATSRTLCAGILEGGKDSCKADSGGPLICNGEIQGIVSRGGHSCGQPRKPGLYTKVFDHLDWIKSIIAGNKDAICPP
notes: numbers count on: the mature protein; also called svSP02_TLf2; basic 30 kDa protein; source: purified from habu crude venom (CM-52 basic fraction #15, POROS HS column)
B3: [Lys49]PLA2 (BPII) (natural protein)
chain: SLVQLWKMIFQETGKEAAKNYGLYGCNCGVGRRGKPKDATDSCCYVHKCCYKKVTGCNPKMDSYSYSWKNKAIVCGEKNPPCLKQVCECDKAVAICLRENLGTYNKKYTIYPKPFCKKADTC
notes: [Lys49] phospholipase A2 BPII of Protobothrops flavoviridis; also called myonecrotic [Lys49]; PLA2; source: prepared from habu (Protobothrops flavoviridis) crude venom
B4: [Lys49] PLA2 (BPII) (natural protein)
chain: B3 chain
notes: Basic protein II (BPII), [Lys49] phospholipase A2 myotoxin of Protobothrops flavoviridis venom; also called [Lys49]PLA2 myotoxin; myonecrotic [Lys49]; PLA2

Details in all cases: both partners purified
The target of test [1] is T1, [Asp49] PLA2 (Protobothrops flavoviridis, UniProt P06859 17-138).
T1 construct: hemolytic [Asp49] phospholipase A2 of Protobothrops flavoviridis; source: prepared from habu (Protobothrops flavoviridis) crude venom
T1 sequence (looked up): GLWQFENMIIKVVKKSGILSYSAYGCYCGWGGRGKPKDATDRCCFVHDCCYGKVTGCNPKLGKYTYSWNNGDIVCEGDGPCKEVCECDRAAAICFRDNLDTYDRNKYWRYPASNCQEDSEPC
As to the kind of experiment: SPR; BIAcore X; TLf1 or TLf2 immobilised on a CM5 chip by amine coupling; BPII or [Asp49] PLA2 injected as analytes (12.5-100 ug/ml) in HBS (10 mM HEPES pH 7.4, 0.15 M NaCl, 3 mM EDTA, 0.005% surfactant P-20) at 20 uL/min; nonlinear least-squares fitting with BIAevaluation. Background: SPR reads the build-up and loss of mass on a sensor chip optically.

In test [2] the target is B1. Described as above.
The target in test [3] is B2. The test is described as above.
In test [4] the target is T2, thrombin-like serine protease TLSP2 (TLf2) (Protobothrops flavoviridis, UniProt O13057 25-260).
T2 construct: also called svSP02_TLf2; basic 30 kDa protein; source: purified from habu (Protobothrops flavoviridis) crude venom (CM-52, POROS HS)
Put plainly: SPR; BIAcore X; TLf2 or TLf1 amine-coupled on CM5 chip; BPII or [Asp49] PLA2 injected as analytes (12.5-100 ug/ml) in HBS (10 mM HEPES pH 7.4, 0.15 M NaCl, 3 mM EDTA, 0.005% P-20), 20 uL/min; unmodified CM5 as control; regeneration 10 mM HCl.

Test [5] concerns the target T3, flavoxobin (TLf1) (Protobothrops flavoviridis, UniProt P05620 25-260).
T3 construct: Flavoxobin (TLf1), thrombin-like serine protease of Protobothrops flavoviridis venom; also called flavoxovin; svSP01_TLf1
The test is described as above.

For orientation: Kd means a measure of binding affinity in units of concentration. As a reminder, the koff is the first-order rate constant of dissociation. What is called kon is the rate constant with which the complex forms. High values mean fast association, low ones slow association. In test [1], B1 gave a Ka of 371000 M⁻¹, a Kd of 2690 nM, a koff of 0.0125 s⁻¹ and a kon of 4660 M⁻¹ s⁻¹.
The matching figures for B2: 7.9e+06 M⁻¹, 127 nM, 0.000791 s⁻¹ and 6250 M⁻¹ s⁻¹.
On to B3, for which, in test [2], the Ka stood at 6.56e+06 M⁻¹, the off-rate (koff) came out at 0.00257 s⁻¹ and the kon came out at 16900 M⁻¹ s⁻¹. Moreover, in test [3], the Ka turned out to be 1.02e+07 M⁻¹, the koff was determined as 0.00122 s⁻¹ and the kon worked out at 12500 M⁻¹ s⁻¹.
Regarding B4, the Kd was 97.9 nM in test [4] and 152 nM in test [5].

Source of the values: paper PMC8599580, “Focused Proteomics Analysis of Habu Snake (Protobothrops flavoviridis) Venom Using Antivenom-Based Affinity Chromatography Reveals Novel Myonecrosis-Enhancing Activity of Thrombin-Like Serine Proteases” (Frontiers in Pharmacology, 2021).
